Experimental data taken from patent US8129557B2, “Phosphonic acid diester derivative and method for producing thereof” (priority 2005, dated 2012).

Tested on: T1, Cc1cc(=O)oc2cc(NC(=O)CC[C@H](N)C(=O)O)ccc12
T1 construct: purchased Asahi Kasei Co., Ltd. HC-GTP (lot 603AA)
Assay: Hydrolytic assay of human GGT (Michaelis constant of substrate)
Format: biochemical
Conditions: other: human GGT, substrate concentration 4.0 μM
Description: In the experiment, at first, Michaelis constants (Km) for 7-(γ-L-glutamylamino)-4-methylcoumarin as substrate were measured by a fluorescence method [Smith, G. D.; Ding, J. L.; Peters, T. J. Anal. Biochem. 100, 136-139 (1979)] for the hydrolytic activities of E-coli GGT and human GGT.
In the hydrolytic assay of human GGT, the measurement was carried out in the same manner as that in the hydrolytic assay of E-coli GGT, except that the substrate concentration was changed to […] and therefore, the explanation of the common portions was omitted.

Chain of human GGT (Homo sapiens) (chain, as listed by the source): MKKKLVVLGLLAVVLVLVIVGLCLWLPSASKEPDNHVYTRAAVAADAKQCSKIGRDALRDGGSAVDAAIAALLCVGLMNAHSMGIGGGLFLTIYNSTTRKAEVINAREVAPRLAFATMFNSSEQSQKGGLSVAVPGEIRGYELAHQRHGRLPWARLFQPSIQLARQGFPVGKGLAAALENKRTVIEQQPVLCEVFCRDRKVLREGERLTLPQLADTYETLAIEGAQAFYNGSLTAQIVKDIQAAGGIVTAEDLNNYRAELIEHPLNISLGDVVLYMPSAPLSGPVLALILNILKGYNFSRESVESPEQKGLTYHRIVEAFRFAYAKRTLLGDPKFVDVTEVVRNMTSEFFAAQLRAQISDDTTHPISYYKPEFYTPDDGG
Chain of human GGT (Homo sapiens) (chain, as listed by the source): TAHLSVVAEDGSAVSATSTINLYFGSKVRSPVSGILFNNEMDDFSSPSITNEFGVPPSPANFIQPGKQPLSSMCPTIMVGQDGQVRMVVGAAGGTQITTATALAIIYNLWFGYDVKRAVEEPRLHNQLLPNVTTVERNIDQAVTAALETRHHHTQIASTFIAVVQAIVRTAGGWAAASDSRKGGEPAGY

With human GGT (Homo sapiens) the Km was 12.6 µM.
